Six proteins from article PMC9079729, “Conservation of the conformational dynamics and ligand binding within M49 enzyme family” (RSC Advances, 2018) can be followed below.

Holding throughout (test): Km for hydrolysis of fluorogenic substrate Arg2-2NA
Substrate in series [1]: N=C(N)NCCC[C@H](NC(=O)[C@@H](N)CCCNC(=N)N)C(=O)Nc1ccc2ccccc2c1
The class given is biochemical. The note with it: other: pH 7.4 (20 mM Tris–HCl buffer), 25 °C, initial reaction rates.

Substrate in series [2]: N=C(N)NCCC[C@H](NC(=O)[C@@H](N)CCCNC(=N)N)C(=O)Nc1ccc2ccccc2c1
The class given is biochemical, yeast (Saccharomyces cerevisiae). The note with it: other: pH 7.4 (20 mM Tris–HCl buffer), 25 °C, initial reaction rates, yeast DPP III.

Substrate in series [3]: N=C(N)NCCC[C@H](NC(=O)[C@@H](N)CCCNC(=N)N)C(=O)Nc1ccc2ccccc2c1
Type of series: biochemical, Bacteroides thetaiotaomicron. Conditions: other: pH 7.4 (20 mM Tris–HCl buffer), 25 °C, initial reaction rates, B. thetaiotaomicron DPP III.

B1: human DPP III (Homo sapiens) (protein)
chain: ADTQYILPNDIGVSSLDCREAFRLLSPTERLYAYHLSRAAWYGGLAVLLQTSPEAPYIYALLSRLFRAQDPDQLRQHALAEGLTEEEYQAFLVYAAGVYSNMGNYKSFGDTKFVPNLPKEKLERVILGSEAAQQHPEEVRGLWQTCGELMFSLEPRLRHLGLGKEGITTYFSGNCTMEDAKLAQDFLDSQNLSAYNTRLFKEVDGEGKPYYEVRLASVLGSEPSLDSEVTSKLKSYEFRGSPFQVTRGDYAPILQKVVEQLEKAKAYAANSHQGQMLAQYIESFTQGSIEAHKRGSRFWIQDKGPIVESYIGFIESYRDPFGSRGEFEGFVAVVNKAMSAKFERLVASAEQLLKELPWPPTFEKDKFLTPDFTSLDVLTFAGSGIPAGINIPNYDDLRQTEGFKNVSLGNVLAVAYATQREKLTFLEEDDKDLYILWKGPSFDVQVGLHELLGHGSGKLFVQDEKGAFNFDQETVINPETGEQIQSWYRSGETWDSKFSTIASSYEECRAESVGLYLCLHPQVLEIFGFEGADAEDVIYVNWLNMVRAGLLALEFYTPEAFNWRQAHMQARFVILRVLLEAGEGLVTITPTTGSDGRPDARVRLDRSKIRSVGKPALERFLRRLQVLKSTGDVAGGRALYEGYATVTDAPPECFLTLRDTVLLRKESRKLIVQPNTRLEGSDVQLLEYEASAAGLIRSFSERFPEDGPELEEILTQLATADARFWKGPSEAPSGQA
In general, Km refers to the concentration of substrate that gives half-maximal velocity. Turning to B1, in series [1] (human DPP III), the Michaelis-Menten constant (Km) is 6.0 µM.

B2: Caldithrix abyssi DPP III (Caldithrix abyssi DSM 13497) (protein)
chain: MKRILLVLLTLVFLGAIACQKKEENKTEMVKLKRMIAQFAPTEIKYDHSLLDERKQKVVENLYRAAKIMDEIFLDQVYSKNFEIREQLRASSDPLDQLRLEYFTIMFGPFDRLNHDKPFIGNTPKPKGANFYPPDMTREEFENWLKAHPEDEAAFTSEFTVIRRQDGKLVAIPYSEYYKEYLTRAADYLKKAAEFADNPSLKKYLQLRAEAFLNNDYYESDLAWMDLNDHTIEVVIGPYEVYEDKLFNYKAAFEAFITLRDPVESAKLKKFVGYLDEMEKNLPIPDAYKNFNRGSESPMVVVQEVFSAGDTKAGVQTLAFNLPNDERVREAKGSKKVMLKNIHEAKFDKLLKPIAEKVLFAEQLPLVTFEGFFNHTLMHEISHGLGPGKIVLNGRQTEVKKELKETYSSIEECKADVLGMYNNLFMIEKGVYPPEFEKQIYVTFLAGIFRTIRFGINEAHGAGNAVIFNYLLEKGAYQFDPAAHRVKVNFEKIKDGVRDLANKVLTIQAQGDYMAAKNLLETYAVESEPIMIMRARLQELPVDIKPIFQIEKELGNSN
Turning to B2, the Michaelis-Menten constant (Km) in series [1] (Caldithrix abyssi DPP III) is 15.9 µM.

B3: yeast DPP III (Saccharomyces cerevisiae S288C) (protein)
chain: MSHFFADHDAPLSMLSVKTEYFPQLTDKEQKYAHFMSKASHAGSRVVMRQVSHESEPIFDLILAIHSKLNGKYPEDDITQKQQTGLYLEYVSQFLSNLGNFKSFGDTKFIPRCEVKFFKQLLELAKINPCSSPLTLSPVDVNHEFTSHHLFSTINELIDIGIYHVEEKAALLGFPSQGYTSAYYLGLPVTPEDMALLKEQLFAELAILPENTRINKVGENSFQIWVASENVKNQITETYPSGQITLSNAVTKVEFIFGDHSREMRLVASYLKEAQKFAANDTQKAMLQEYINHFVTGSSQAHKEAQKLWVKDISPVIETNIGFIETYREPSGIIGEFESLVAIQNKERTAKFSSLVNNAEEFISLLPWSKDYEKPIFNPPDFTSLEVLTFTGSGIPAGINIPNYDDVRLKIGFKNVSLGNILSAAAKSSSKHPPSFISQEDRPIFEKYQSDSFEVQVGIHELLGHGSGKLLTEFTDGFNFDKENPPLGLDGKPVSTYYKVGETWGSKFGQLAGPFEECRAEVIAMFLLTNKKILDIFGFHDVESQDKVIYAGYLQMARAGLLALEYWNPKTGKWGQPHMQARFSIMKTFMKHSTDKNFLKLEMNSTNDDFAIKLDKSLIKTAGHECVKDYLKHLHVYKCSGDVEQGSKYFIDRSTVTPDLASLRDIVLSKRLPRRQFIQSNSYIDDNNKVTLKEYDETPQGMLQSFLDREL
With B3, the Km in series [2] is 12 µM.

B4: Porphyromonas gingivalis DPP III (Porphyromonas gingivalis W83) (protein)
chain: MTKETTQHRSGERIARFADIEVLSYRADLFGTLTPKQRMLCYHLSEAALRGRDITTIQNCRYNLWVRSLMERIYTHLSKSERTDDFALLEEYLFCIWFANGIHHHYSGAKFIARFSPGFLRAALREAGVELEPEEQVLLERVLYDTDFLPKQTEQSGEEDIIKASSVNFYAPGITRAEAESHYKNLIEALPENEKSCPPSFGLNTRLIRSTSGELKDEVCCIDGLYGPAIEAVVASLEAAIPYTENEEQAACIRLLCDYYRTGDIRLYDRFCIRWVENNRTRIDFINGFTEVYADPIGIHGSWEGLVHMQDEEAGRRTRIISEHAGWFEAHSPIDARFRKKNPHGISATVVNVLTIAGDSYPATPIGINLPNADWIRAEHGSKSVTIDNITDAYNHAARGTGLYEEFIPDEEVRRHVELHADLTDSLHTDLHECLGHGSGQLLPGVPGDALGEHASTLEETRADLFALYFLADPKMIELGLLTDPDAYKANYYKYMLNGLMTQLVRIKRGEEIEEAHMRNRALIARYVLEHAERPGAMSLVCEEGKTALVIKDYEAVRAIIAGLLTEVQRIKSEGDYTAGKALVERYAVHVDPLLHEEVLTRYAKLDIAPYKGFVNPRLRPVYNSEGRLTDATIEYTEGYAEQMLRYSAEYSFLPTDSPLLQEARRLRSHLRRAMDGVLSASMREKGLHYGINFGVTREHLLRLARTADASAPLADYLWRRDVRETKILATMIFPAEELTHEQATRLLREADNVELREQLTANLLERMPEAIRSIGRWIESKETTPDMMTGVLTLAARLFTRGIFPEDVPAEKLLTLAILHLSDEEQKAELRRASALLLKRYGRGSAERTKKVLCLLPESSQDTAPVLYELCEDIRFELDFYPKDE
On to B4, for which, in series [1] (Porphyromonas gingivalis DPP III), the Michaelis-Menten constant (Km) stood at 0.3 µM.

B5: Physcomitrella patens DPP III (Physcomitrium patens) (protein)
chain: MEGFQEEFSLGECLDVLTAAGLRTGDVKKRHLVHADGDYHRAVHVWLFVESTQELVLQKRADCKDSWPGLWDISSAGHISAGDTSLLTARRELQEELGITLPADAFEFLFDYLQECVINGGKYINNEYNDVYLVTLVDHIPVEAFTLQETEVSAVKYMKWQDYEDAVRKEDSSYVPCDVDGGYSALFSALRRRYEVDTSAKLEELQMHINRYVPVEIHGETTGLSKGDLLALSDTIRAAKLLDRIFLEQEWATNPALKDSLQAASGKSELDRLKFAYYLINKSPWSILDENDAFLTTADSAIQIAEGAVDESVTWGGKVRYRAAFPVEKAPGANFYPVDMDKEEFQAWKDGLDKGQQADATSFFTTIRRSGDIHDADGAKVHDLKIVPYSKEYATILKEASYLLHKAGDSAENPSLKRLLKAKADAFLSNDYYESDIAWMELDSPLDVTIGPYETYEDGLFGYKATFEAFIGIRDDEATQRLKLFSHNLQEMEDNLPMDDEYKSKTVTFSPIRVIQLLYNSGDVKGPQTVAFNLPNDDRIVKERGTAMVMLKNISQAKFDYILLPIANVCVEASQRGAVDFDSFFTHTICHECCHGIGPHNIVTPDGRASTVRLELQEVYSAIEEAKADIVGLWALHFLVDKGLLPRSLENTMYVSFLAGCFRSIRFGLEEAHGKGQALQFNFILEKGGFSYHPDGTFSVDYTKVRQCVEDLSRLILTIEAKGDKAGAEALLAKYAALTPQLQQSFDALQDVQVPVDIFPTFKLLDDIKL
B5: the Michaelis-Menten constant (Km) in series [1] (Physcomitrella patens DPP III) was found to be 23.8 µM.

B6: B. thetaiotaomicron DPP III (Bacteroides thetaiotaomicron VPI-5482) (protein)
chain: MAVTATILASCGGAKTTTAEADKFDYTVEQFADLQILRYKVPEFETLTLKQKELVYYLTQAALEGRDILFDQNGKYNLRIRRMLEAVYTNYKGDKSAPDFKNMEVYLKRVWFSNGIHHHYGMEKFVPGFSQDFLKQAVLGTDAQLLPLSEGQTAEQLCDELFPVMFDPAILAKRVNQADGEDLVLTSACNYYDGVTQQEAESFYGAMKDPKDETPVSYGLNSRLVKEDGKIQEKVWKVGGLYTQAIEKIVYWLKKAETVAENDAQKAVISKLIQFYETGSLKDFDEYAILWVKDLDSRIDFVNGFTESYGDPLGVKASWESLVNFKDLDATHRTEIISSNAQWFEDHSPVDKSFKKEKVKGVSAKVITAAILAGDLYPATAIGINLPNANWIRAHHGSKSVTIGNITDAYNKAAHGNGFNEEFVCNDEERQRIDQYGDLTGELHTDLHECLGHGSGKLLPGVDPDALKAYGSTIEEARADLFGLYYVADPKLVELKLVPDAEAYKAEYYTFLMNGLMTQLVRIEPGNNIEEAHMRNRQLIARWVFEKGAPDKVVEMVKKDGKTYVVVNDYEKVRQLFGELLAEIQRIKSTGDFEGARTLVENYAVKVDPALHAEVLARYKKLNLAPYKGFINPVYELVTDKDGNITDVTVSYNEDYVEQMLRYSKDYSPLPSVNN
Consider B6, for which the Km in series [3] came out at 0.8 µM.
